Assay in all cases: BLI (Octet R8), avidity format: biotinylated CD33 on streptavidin sensor, Refmab #3 as analyte at 500 nM;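 note: analyte association recorded over 300 s, then dissociation followed for 900 s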
For test [1], the target named is CD33 variant F21S (recombinant, biotinylated) (human, UniProt P20138 22-259, biotinylated with EZ-Link Sulfo-NHS-LC-Biotin (sites not given)).
For test [2], the target named is CD33 double variant Y50H_H49H (recombinant, biotinylated) (human, UniProt P20138 18-259, biotinylated with EZ-Link Sulfo-NHS-LC-Biotin (sites not given)).
Chain of CD33 double variant Y50H_H49H (recombinant, biotinylated) (P20138 other isoform, or with tags, fused parts or gaps Y50H H49H Y50H H49H): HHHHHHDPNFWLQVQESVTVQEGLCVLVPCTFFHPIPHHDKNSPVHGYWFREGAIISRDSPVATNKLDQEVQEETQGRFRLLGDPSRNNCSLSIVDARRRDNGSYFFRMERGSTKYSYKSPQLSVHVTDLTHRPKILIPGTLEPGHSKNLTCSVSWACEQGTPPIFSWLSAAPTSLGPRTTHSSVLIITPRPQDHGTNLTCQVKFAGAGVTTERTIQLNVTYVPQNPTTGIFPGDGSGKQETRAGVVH
Test [3] has as its target CD33 variant F21V (recombinant, biotinylated) (human, UniProt P20138 22-259, biotinylated with EZ-Link Sulfo-NHS-LC-Biotin (sites not given)).
The target in test [4] is CD33 variant F21N (recombinant, biotinylated) (human, UniProt P20138 22-259, biotinylated with EZ-Link Sulfo-NHS-LC-Biotin (sites not given)).
Chain of CD33 variant F21N (recombinant, biotinylated) (P20138 other isoform, or with tags, fused parts or gaps F21N F21N): as the sequence (P20138 other isoform, or with tags, fused parts or gaps Y50H H49H Y50H H49H) above, with F10N, H38Y, H39Y counted along it
Test [5] addresses CD33 variant F21H (recombinant, biotinylated) (human, UniProt P20138 22-259, biotinylated with EZ-Link Sulfo-NHS-LC-Biotin (sites not given)).
For test [6], the target named is CD33 variant Y50D (recombinant, biotinylated) (human, UniProt P20138 18-259, biotinylated with EZ-Link Sulfo-NHS-LC-Biotin (sites not given)).
For test [7], the target named is CD33 variant W22R (recombinant, biotinylated) (human, UniProt P20138 18-259, biotinylated with EZ-Link Sulfo-NHS-LC-Biotin (sites not given)).
Chain of CD33 variant W22R (recombinant, biotinylated) (P20138 other isoform, or with tags, fused parts or gaps W22R W22R): as the sequence (P20138 other isoform, or with tags, fused parts or gaps Y50H H49H Y50H H49H) above, with W11R, H38Y, H39Y counted along it
Test [8] has as its target CD33 variant W22K (recombinant, biotinylated) (human, UniProt P20138 18-259, biotinylated with EZ-Link Sulfo-NHS-LC-Biotin (sites not given)).
Test [9] addresses CD33 variant F21Q (recombinant, biotinylated) (human, UniProt P20138 22-259, biotinylated with EZ-Link Sulfo-NHS-LC-Biotin (sites not given)).
Test [10] deals with CD33 variant W22D (recombinant, biotinylated) (human, UniProt P20138 18-259, biotinylated with EZ-Link Sulfo-NHS-LC-Biotin (sites not given)).
Chain of CD33 variant W22D (recombinant, biotinylated) (P20138 other isoform, or with tags, fused parts or gaps W22D W22D): as the sequence (P20138 other isoform, or with tags, fused parts or gaps Y50H H49H Y50H H49H) above, with W11D, H38Y, H39Y counted along it
For test [11], the target named is CD33 variant N20K (recombinant, biotinylated) (human, UniProt P20138 21-259, biotinylated with EZ-Link Sulfo-NHS-LC-Biotin (sites not given)).
Chain of CD33 variant N20K (recombinant, biotinylated) (P20138 other isoform, or with tags, fused parts or gaps N20K N20K): as the sequence (P20138 other isoform, or with tags, fused parts or gaps Y50H H49H Y50H H49H) above, with N9K, H38Y, H39Y counted along it
The target in test [12] is CD33 variant W22T (recombinant, biotinylated) (human, UniProt P20138 18-259, biotinylated with EZ-Link Sulfo-NHS-LC-Biotin (sites not given)).
Test [13] has as its target CD33 variant F21M (recombinant, biotinylated) (human, UniProt P20138 22-259, biotinylated with EZ-Link Sulfo-NHS-LC-Biotin (sites not given)).
Test [14] deals with CD33 variant N20V (recombinant, biotinylated) (human, UniProt P20138 21-259, biotinylated with EZ-Link Sulfo-NHS-LC-Biotin (sites not given)).
Chain of CD33 variant N20V (recombinant, biotinylated) (P20138 other isoform, or with tags, fused parts or gaps N20V N20V): as the sequence (P20138 other isoform, or with tags, fused parts or gaps Y50H H49H Y50H H49H) above, with N9V, H38Y, H39Y counted along it
The target in test [15] is CD33 variant N20E (recombinant, biotinylated) (human, UniProt P20138 21-259, biotinylated with EZ-Link Sulfo-NHS-LC-Biotin (sites not given)).
Chain of CD33 variant N20E (recombinant, biotinylated) (P20138 other isoform, or with tags, fused parts or gaps N20E N20E): as the sequence (P20138 other isoform, or with tags, fused parts or gaps Y50H H49H Y50H H49H) above, with N9E, H38Y, H39Y counted along it
For test [16], the target named is CD33 variant Y50K (recombinant, biotinylated) (human, UniProt P20138 18-259, biotinylated with EZ-Link Sulfo-NHS-LC-Biotin (sites not given)).
Chain of CD33 variant Y50K (recombinant, biotinylated) (P20138 other isoform, or with tags, fused parts or gaps Y50K Y50K): as the sequence (P20138 other isoform, or with tags, fused parts or gaps Y50H H49H Y50H H49H) above, with H38Y, H39K counted along it
The target in test [17] is CD33 variant F21L (recombinant, biotinylated) (human, UniProt P20138 22-259, biotinylated with EZ-Link Sulfo-NHS-LC-Biotin (sites not given)).
Chain of CD33 variant F21L (recombinant, biotinylated) (P20138 other isoform, or with tags, fused parts or gaps F21L F21L): as the sequence (P20138 other isoform, or with tags, fused parts or gaps Y50H H49H Y50H H49H) above, with F10L, H38Y, H39Y counted along it
The target of test [18] is CD33 variant Y50R (recombinant, biotinylated) (human, UniProt P20138 18-259, biotinylated with EZ-Link Sulfo-NHS-LC-Biotin (sites not given)).
Chain of CD33 variant Y50R (recombinant, biotinylated) (P20138 other isoform, or with tags, fused parts or gaps Y50R Y50R): as the sequence (P20138 other isoform, or with tags, fused parts or gaps Y50H H49H Y50H H49H) above, with H38Y, H39R counted along it
Test [19] deals with CD33 variant N20H (recombinant, biotinylated) (human, UniProt P20138 21-259, biotinylated with EZ-Link Sulfo-NHS-LC-Biotin (sites not given)).
Chain of CD33 variant N20H (recombinant, biotinylated) (P20138 other isoform, or with tags, fused parts or gaps N20H N20H): as the sequence (P20138 other isoform, or with tags, fused parts or gaps Y50H H49H Y50H H49H) above, with N9H, H38Y, H39Y counted along it
The target of test [20] is T1, CD33 wild type (recombinant, biotinylated) (human, UniProt P20138 18-259, biotinylated with EZ-Link Sulfo-NHS-LC-Biotin (sites not given)).
T1 construct: also called WT; CD33 wt

Test [21] concerns the target CD33 variant N20G (recombinant, biotinylated) (human, UniProt P20138 21-259, biotinylated with EZ-Link Sulfo-NHS-LC-Biotin (sites not given)).
In test [22] the target is CD33 variant F44P (recombinant, biotinylated) (human, UniProt P20138 18-259, biotinylated with EZ-Link Sulfo-NHS-LC-Biotin (sites not given)).
The target of test [23] is CD33 variant W22E (recombinant, biotinylated) (human, UniProt P20138 18-259, biotinylated with EZ-Link Sulfo-NHS-LC-Biotin (sites not given)).
Test [24] deals with CD33 variant F21I (recombinant, biotinylated) (human, UniProt P20138 22-259, biotinylated with EZ-Link Sulfo-NHS-LC-Biotin (sites not given)).
Chain of CD33 variant F21I (recombinant, biotinylated) (P20138 other isoform, or with tags, fused parts or gaps F21I F21I): as the sequence (P20138 other isoform, or with tags, fused parts or gaps Y50H H49H Y50H H49H) above, with F10I, H38Y, H39Y counted along it

These results are taken from patent US20260242735A1 (UNIVERSIT T BASEL, published 2026).

Chain of CD33 variant N20G (recombinant, biotinylated) (P20138 other isoform, or with tags, fused parts or gaps N20G N20G): as the sequence (P20138 other isoform, or with tags, fused parts or gaps Y50H H49H Y50H H49H) above, with N9G, H38Y, H39Y counted along it
Chain of CD33 variant F21Q (recombinant, biotinylated) (P20138 other isoform, or with tags, fused parts or gaps F21Q F21Q): as the sequence (P20138 other isoform, or with tags, fused parts or gaps Y50H H49H Y50H H49H) above, with F10Q, H38Y, H39Y counted along it
Chain of CD33 variant F21M (recombinant, biotinylated) (P20138 other isoform, or with tags, fused parts or gaps F21M F21M): as the sequence (P20138 other isoform, or with tags, fused parts or gaps Y50H H49H Y50H H49H) above, with F10M, H38Y, H39Y counted along it
Chain of CD33 variant W22K (recombinant, biotinylated) (P20138 other isoform, or with tags, fused parts or gaps W22K W22K): as the sequence (P20138 other isoform, or with tags, fused parts or gaps Y50H H49H Y50H H49H) above, with W11K, H38Y, H39Y counted along it
Chain of CD33 variant F21H (recombinant, biotinylated) (P20138 other isoform, or with tags, fused parts or gaps F21H F21H): as the sequence (P20138 other isoform, or with tags, fused parts or gaps Y50H H49H Y50H H49H) above, with F10H, H38Y, H39Y counted along it
Chain of CD33 variant F21V (recombinant, biotinylated) (P20138 other isoform, or with tags, fused parts or gaps F21V F21V): as the sequence (P20138 other isoform, or with tags, fused parts or gaps Y50H H49H Y50H H49H) above, with F10V, H38Y, H39Y counted along it
Chain of CD33 variant F21S (recombinant, biotinylated) (P20138 other isoform, or with tags, fused parts or gaps F21S F21S): as the sequence (P20138 other isoform, or with tags, fused parts or gaps Y50H H49H Y50H H49H) above, with F10S, H38Y, H39Y counted along it

B1: Refmab #3 (antibody, human IgG1, V domains shown)
VH: QVQLVQSGAEVKKPGSSVKVSCKASGYTFTDYNMHWVRQAPGQGLEWIGYIYPYNGGTGYNQKFKSKATITADESTNTAYMELSSLRSEDTAVYYCARGRPAMDYWGQGTLVTVSS
VL: DIQMTQSPSSLSASVGDRVTITCRASESVDNYGISFMNWFQQKPGKAPKLLIYAASNQGSGVPSRFSGSGSGTDFTLTISSLQPDDFATYYCQQSKEVPWTFGQGTKVEIK
B1: the “% WT binding” value is 0 % WT binding in test [1]; 58.5 % WT binding in [2]; 0 % WT binding in [3]; 0 % WT binding in test [4]; 0 % WT binding in [5]; 128 % WT binding in test [6]. Moreover, the “% WT binding” value in test [7] came to 0.86 % WT binding; in test [8], 0 % WT binding; in test [9], 0 % WT binding; in [10], 6.42 % WT binding; in test [11] it was 0 % WT binding; in [12], 5.25 % WT binding. Further, the “% WT binding” value was 0 % WT binding in test [13]; 6.62 % WT binding in [14]; 0 % WT binding in test [15]; 73.9 % WT binding in [16]; 0 % WT binding in [17]; 93.1 % WT binding in test [18]. Also, the “% WT binding” value came out at 5.39 % WT binding in test [19]; 100 % WT binding in [20]; 0 % WT binding in test [21]; 0 % WT binding in [22]; 23.5 % WT binding in [23]; 0 % WT binding in [24].
